koff data for one molecule are collected here from patent US20140017235A1 (published 2014).

The assay addresses T1, human NGF (human, UniProt P01138 122-241).
T1 construct: also called hNGF; nerve growth factor
Nature of the assay: BIAcore SPR screening, Fab over immobilized human NGF. As to the method: Affinities of anti-NGF Fabs and monoclonal antibodies were determined using the BIAcore3000™ surface plasmon resonance (SPR) system (BIAcore, INC, Piscaway N.J.). CM5 chips were activated with N-ethyl-N′-(3-dimethylaminopropyl)-carbodiinide hydrochloride (EDC) and N-hydroxysuccinimide (NHS) according to the supplier's instructions. Human NGF was diluted into 10 mM sodium acetate pH 4.0 and injected over the activated chip at a concentration of 0.005 mg/mL. Using variable flow time across the individual chip channels, two ranges of antigen density were achieved: 100-200 response units (RU) for detailed kinetic studies and 500-600 RU for screening assays. The chip was blocked with ethanolamine. […] HBS-EP buffer (0.01M HEPES, pH 7.4, 0.15 NaCl, 3 mM EDTA, 0.005% Surfactant […]) was used as running buffer for all the BIAcore assays.
(SPR reads the build-up and loss of mass on a sensor chip optically.)

T1 sequence (P01138 122-241 limits assumed): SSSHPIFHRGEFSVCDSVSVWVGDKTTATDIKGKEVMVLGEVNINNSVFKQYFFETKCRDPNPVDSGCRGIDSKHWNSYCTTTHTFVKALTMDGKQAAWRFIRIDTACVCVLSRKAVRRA

B1: H19-L129 (Fab, V domains shown)
VH: QVQLQESGPGLVKPSETLSLTCTVSGFSLIGYDLNWIRQPPGKGLEWIGIIWGDGTTDYNSAVKSRVTISKDTSKNQFSLKLSSVTAADTAVYYCARGGYYYGTSYYFDYWGQGTLVTVS
VL: DIQMTQSPSSLSASVGDRVTITCRASQSISNNLNWYQQKPGKAPKLLIYYTSRFHSGVPSRFSGSGSGTDFTFTISSLQPEDIATYYCQQSKTLPYTFGQGTKLEIKR
notes: E. coli Fab with human Ckappa and human IgG2a CH1; also called H19-L129 Fab; Fab H19-L129
A word on the koff: it is a measure of how fast the partners let go of each other. High values mean fast dissociation, low ones slow dissociation. The molecule B1 displayed a koff of 0.0001 s⁻¹.
